Values of other authors in US20220223299A1, “METHODS AND APPARATUSES FOR MODELING, SIMULATING, AND TREATING HEREDITARY ANGIOEDEMA” (Takeda Pharmaceutical Company Limited, priority 2019, published 2022).
Blank lines part the entries; values can stand above or below the molecule they belong to.

Key:
FXIIa = target: T1, FXIIa (Homo sapiens, UniProt P00748); conditions: FXIIa in plasma and FXIIa_gC1qR
T1 sequence (P00748 20-372 partner limits assumed): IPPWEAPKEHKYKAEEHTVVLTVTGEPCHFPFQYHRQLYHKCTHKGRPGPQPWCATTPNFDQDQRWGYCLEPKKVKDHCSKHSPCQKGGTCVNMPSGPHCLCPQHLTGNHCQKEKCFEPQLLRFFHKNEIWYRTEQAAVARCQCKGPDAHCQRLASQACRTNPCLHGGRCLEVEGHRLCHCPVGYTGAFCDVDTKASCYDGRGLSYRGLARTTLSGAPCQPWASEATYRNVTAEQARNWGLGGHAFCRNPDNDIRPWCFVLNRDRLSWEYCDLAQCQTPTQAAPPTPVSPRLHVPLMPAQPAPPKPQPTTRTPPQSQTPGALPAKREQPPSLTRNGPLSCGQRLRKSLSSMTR
T1 sequence (P00748 373-615 limits assumed): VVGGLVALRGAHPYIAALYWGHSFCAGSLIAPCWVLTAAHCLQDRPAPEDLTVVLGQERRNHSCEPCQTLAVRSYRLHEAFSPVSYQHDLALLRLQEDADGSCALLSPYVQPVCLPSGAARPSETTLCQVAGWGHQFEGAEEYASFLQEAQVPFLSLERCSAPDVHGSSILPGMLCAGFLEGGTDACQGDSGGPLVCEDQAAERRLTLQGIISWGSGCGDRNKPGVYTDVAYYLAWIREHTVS

KAL (kallikrein) = target: T2, KAL (kallikrein) (Homo sapiens, UniProt P03952); conditions: KAL in plasma, KAL_HMWK in plasma and KAL_HMWK_gC1qR
T2 construct: The preKAL is cleaved by FXIIa resulting in KAL, the two-chain enzyme kallikrein

KAL (plasma kallikrein) = target: T3, KAL (plasma kallikrein) (Homo sapiens, UniProt P03952); conditions: KAL in plasma, KAL_HMWK in plasma and KAL_HMWK_gC1qR
T3 construct: The preKAL is cleaved by FXIIa resulting in KAL, the two-chain enzyme kallikrein

[1] = in vivo

T3 sequence (P03952 20-390 partner limits assumed): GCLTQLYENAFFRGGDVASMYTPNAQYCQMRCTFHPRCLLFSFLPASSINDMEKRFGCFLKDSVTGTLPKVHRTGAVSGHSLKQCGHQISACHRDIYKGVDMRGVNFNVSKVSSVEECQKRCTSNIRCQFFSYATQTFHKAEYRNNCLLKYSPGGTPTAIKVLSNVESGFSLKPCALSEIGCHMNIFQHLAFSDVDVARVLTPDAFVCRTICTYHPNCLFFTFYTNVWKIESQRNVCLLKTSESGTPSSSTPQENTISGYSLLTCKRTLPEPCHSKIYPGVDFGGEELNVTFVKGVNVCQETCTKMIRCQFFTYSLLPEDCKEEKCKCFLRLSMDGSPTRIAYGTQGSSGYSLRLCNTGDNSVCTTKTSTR
T3 sequence (P03952 391-638 limits assumed): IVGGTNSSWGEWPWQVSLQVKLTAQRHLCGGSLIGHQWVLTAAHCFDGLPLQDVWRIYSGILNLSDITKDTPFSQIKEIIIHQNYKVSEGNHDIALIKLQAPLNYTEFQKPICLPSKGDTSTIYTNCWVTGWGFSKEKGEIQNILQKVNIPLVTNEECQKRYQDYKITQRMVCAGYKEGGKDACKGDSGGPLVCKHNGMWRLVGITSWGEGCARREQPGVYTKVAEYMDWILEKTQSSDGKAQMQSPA
T2 sequence (P03952 20-390 partner limits assumed): as the sequence (P03952 20-390 partner limits assumed) above
T2 sequence (P03952 391-638 limits assumed): as the sequence (P03952 391-638 limits assumed) above

koff_C1Inh_FXIIa (FXIIa): 0.06364 s⁻¹
kon_C1Inh_FXIIa (FXIIa): 37000 M⁻¹ s⁻¹
Kd (FXIIa; read-out: Kd_C1Inh_FXIIa): 1720 nM
koff_C1Inh_KAL (KAL (kallikrein)): 0.00255 s⁻¹
kon_C1Inh_KAL (KAL (kallikrein)): 17000 M⁻¹ s⁻¹
Kd (KAL (kallikrein); read-out: Kd_C1Inh_KAL): 150 nM
Molecule: C1Inh: C1 inhibitor protein; binds to and inhibits both Factor XIIa and kallikrein
kdeg_C1Inh, degradation rate for C1Inh (vascular space): 4.58e-06 s⁻¹
kdeg_Bound_C1Inh, degradation rate for bound C1Inh (vascular space, bound C1Inh): 0.0038508 s⁻¹

koff_KAL_Lanadelumab (KAL (plasma kallikrein)): 0.0004033 s⁻¹
kon_KAL_Lanadelumab (KAL (plasma kallikrein)): 3.36e+06 M⁻¹ s⁻¹
Kd (KAL (plasma kallikrein); read-out: Kd_KAL_Lanadelumab): 0.12 nM
B1: Lanadelumab: fully human IgG1 recombinant monoclonal antibody inhibitor of activated plasma kallikrein (antibody, chains of the INN, looked up, V domains shown)
VH: EVQLLESGGGLVQPGGSLRLSCAASGFTFSHYIMMWVRQAPGKGLEWVSGIYSSGGITVYADSVKGRFTISRDNSKNTLYLQMNSLRAEDTAVYYCAYRRIGVPRRDEFDIWGQGTMVTVSS
VL: DIQMTQSPSTLSASVGDRVTITCRASQSISSWLAWYQQKPGKAPKLLIYKASTLESGVPSRFSGSGSGTEFTLTISSLQPDDFATYYCQQYNTYWTFGQGTKVEIK
half-life [1]: 14 days
kdeg Lanadelumab KAL HMWK gC1qR, degradation rate for Lanadelumab bound with KAL HMWK gC1qR receptor complex (proximal space): 9.63e-05 s⁻¹
